B1: Transcription factor JunD (Homo sapiens), P17535 (parent)
chain: METPFYGDEALSGLGGGASGSGGSFASPGRLFPGAPPTAAAGSMMKKDALTLSLSEQVAAALKPAAAPPPTPLRADGAPSAAPPDGLLASPDLGLLKLASPELERLIIQSNGLVTTTPTSSQFLYPKVAASEEQEFAEGFVKALEDLHKQNQLGAGAAAAAAAAAAGGPSGTATGSAPPGELAPAAAAPEAPVYANLSSYAGGAGGAGGAATVAFAAEPVPFPPPPPPGALGPPRLAALKDEPQTVPDVPSFGESPPLSPIDMDTQERIKAERKRLRNRIAASKCRKRKLERISRLEEKVKTLKSQNTELASTASLLREQVAQLKQKVLSHVNSGCQLLPQHQVPAY

Variants of: B1
Settings: with mk10_human MAPK10, P53779
Chain of mk10_human MAPK10, P53779 (P53779 whole entry): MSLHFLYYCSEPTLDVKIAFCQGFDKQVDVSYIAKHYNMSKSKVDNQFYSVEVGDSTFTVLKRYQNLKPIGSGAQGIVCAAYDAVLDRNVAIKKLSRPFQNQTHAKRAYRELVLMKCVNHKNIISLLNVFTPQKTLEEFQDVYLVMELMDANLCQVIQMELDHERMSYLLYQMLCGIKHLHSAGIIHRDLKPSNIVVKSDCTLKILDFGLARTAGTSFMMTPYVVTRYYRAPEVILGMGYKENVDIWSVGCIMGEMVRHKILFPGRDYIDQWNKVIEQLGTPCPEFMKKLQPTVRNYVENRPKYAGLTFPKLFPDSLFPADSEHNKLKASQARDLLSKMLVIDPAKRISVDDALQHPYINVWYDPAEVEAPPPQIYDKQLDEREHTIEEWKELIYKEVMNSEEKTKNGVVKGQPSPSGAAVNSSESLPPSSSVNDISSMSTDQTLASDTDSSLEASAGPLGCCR

effect of a mutation on the interaction | Variant
disrupting interaction strength | L52A;L54A
disrupting interaction strength | K46A;K47A
